Data on one molecule can be found in patent US20210040201A1 (Innovent, published 2021).

Read-outs that look alike come from different tables or passages of the source.

Test [1] deals with T1, Human TIGIT expressed on the surface of cells (human, UniProt Q495A1 22-244).
T1 sequence: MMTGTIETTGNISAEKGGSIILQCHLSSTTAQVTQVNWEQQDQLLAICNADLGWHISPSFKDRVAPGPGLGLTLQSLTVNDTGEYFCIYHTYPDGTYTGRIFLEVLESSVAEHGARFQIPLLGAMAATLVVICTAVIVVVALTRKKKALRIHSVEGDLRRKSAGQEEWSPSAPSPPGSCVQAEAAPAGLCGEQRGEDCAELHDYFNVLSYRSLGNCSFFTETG
Kind of test: cell-based or functional assay.

Test [2] addresses T1, Human TIGIT expressed on the surface of …. Description: flow cytometry competition against 50 nM human CD155-mouse IgG2a Fc on CHOS cells expressing human TIGIT; positive control. (A flow cytometer gives signals particle by particle.)
The target is the same in test [3]. Kind of test: flow cytometry on CHOS cells expressing human TIGIT; reference antibody.
The target is the same in test [4]. Kind of test: cell-based or functional assay. This is another data set of the same source.
The target is the same in test [5]. Description: flow cytometry competition against 50 nM human CD155-mouse IgG2a Fc on CHOS cells expressing human TIGIT; positive control. This is another data set of the same source.
Test [6] has as its target T2, Human TIGIT-his (ACRO, TIT-H52H3) (human, UniProt Q495A1 22-141).
T2 construct: Bought protein
T2 sequence: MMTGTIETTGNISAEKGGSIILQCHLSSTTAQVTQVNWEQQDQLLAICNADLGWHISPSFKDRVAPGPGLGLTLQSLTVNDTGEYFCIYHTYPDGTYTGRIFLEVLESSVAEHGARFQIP
Kind of test: BLI (ForteBio), antibody loaded on AHQ sensor, 100 nM TIGIT-his, 1:1 model, monovalent. On the technique in general: Biolayer interferometry detects binding as a change in optical thickness at a sensor tip.

The target in test [7] is T3, Monkey TIGIT-his (ACRO, TIT-05223) (monkey).
T3 construct: Bought protein
The test is described as above.

Test [8] has as its target T1, Human TIGIT expressed on the surface of …. Description: flow cytometry on CHO cells overexpressing human TIGIT; reference antibody in the run with CHO-expressed antibodies.

B1: 31C6 (anti-human TIGIT reference antibody from Merck) (antibody, V domains shown)
VH: EVQLVQSGAEVKKPGASVKVSCKASGYTFSSYVMHWVRQAPGQGLEWIGYIDPYNDGAKYAQKFQGRVTLTSDKSTSTVYMELSSLRSEDTAVYYCARGGPYGWYFDVWGQGTTVTVSS
VL: DIQMTQSPSSLSASVGDRVTITCRASEHIYSYLSWYQQKPGKAPKLLIYNAKTLAEGVPSRFSGSGSGTDFTLTISSLQPEDFATYYCQHHFGSPLTFGQGTRLEIK
As for B1, the “EC50, MOA-based assay (luciferase reporter under IL2 promoter)” value in test [1] is 0.838 nM. Further, the results for the IC50 in test [2] and in test [5] were 0.166 nM and 0.154 nM, respectively. The values for the concentration for a half-maximal effect (EC50) in test [3] and in test [8] were 0.436 nM and 0.185 nM, respectively. For the same molecule, in test [4], the “EC50, MOA-based assay (luciferase reporter under IL2 promoter), positive control in the run with CHO-expressed antibodies” value stood at 0.342 nM. For the same molecule, the dissociation constant (Kd) (commonly the concentration at which binding is half-saturated) stood at 2.34 nM in test [6] and 0.472 nM in test [7].
